# Legend:
# [1] = biological target: ZAP-70 tSH2 domain R190A mutant (human) (UniProt P43403); test: ITC; 20 μM R190A tSH2 in the cell, 300 μM ITAM-ζ1-Y2P in the syringe; 20 °C; 20 mM HEPES pH 8.2, 5 mM β-mercaptoethanol, glycerol-free; 5 mM KCl; one-site model
# [2] = biological target: ZAP-70 tSH2 domain R190A mutant (human) (UniProt P43403); test: ITC; 20 μM R190A tSH2 in the cell, 300 μM ITAM-ζ1-Y2P in the syringe; 20 °C; 20 mM HEPES pH 8.2, 5 mM β-mercaptoethanol, glycerol-free; 20 mM KCl; one-site model
# [3] = biological target: ZAP-70 tSH2 domain R190A mutant (human) (UniProt P43403); test: ITC; 20 μM R190A tSH2 in the cell, 300 μM ITAM-ζ1-Y2P in the syringe; 20 °C; 20 mM HEPES pH 8.2, 5 mM β-mercaptoethanol, glycerol-free; 150 mM NaCl; one-site model
substance,measurement,setting,value
ITAM-ζ1-Y2P peptide (doubly phosphorylated first ITAM of the CD3-ζ chain),Kd,[1],9.77 µM
same,Kd,[2],20.9 µM
same,Kd,[3],6.33 µM

# Reference: paper PMC13235457
